Our source for the IL23R Reporter Assay IC50 and PBMC pSTAT3 IC50 values is patent publication US20240279281A1, “Peptide Inhibitors of Interleukin-23 Receptor” (Janssen Pharmaceutica NV, priority 2023, published 2024).

Starred links: 1 amine or outer side, 2 acyl side, 3 side chain; linkers in the order of their positions; H or OH if unused. Positions of bridges follow the written chain, without caps; N, C: chain ends. Non-standard residues stand in square brackets, D forms with d. No end group written: not given here. X7 = 2‑amino‑3‑(5-methylpyridin-3-yl)propanoic acid, Cc1cncc(CC(N[*:1])C(=O)[*:2])c1; 2Nal(6-OH) = N[C@@H](Cc1ccc2cc(O)ccc2c1)C(=O)O; Trp(7-Me) = Cc1cccc2c(C[C@H](N)C(=O)O)c[nH]c12; dLys(Me3) = C[N+](C)(C)CCCC[C@@H](N)C(=O)O; 3Pal(5-Me) = Cc1cncc(C[C@H](N)C(=O)O)c1; AEF = NCCOc1ccc(C[C@H](N)C(=O)O)cc1; 3Pal = N[C@@H](Cc1cccnc1)C(=O)O; Aad = N[C@@H](CCCC(=O)O)C(=O)O; Pen = CC(C)(S)[C@H](N)C(=O)O; dDab = NCC[C@@H](N)C(=O)O; αMeC = C[C@](N)(CS)C(=O)O; Thp = NC1(C(=O)O)CCOCC1; Abu = CC[C@H](N)C(=O)O; Ahp = NCCCCCCC(=O)O; Sar = CNCC(=O)O

In this test the target is T1, interleukin-23 receptor (IL-23R), Q5VWK5.
T1 chain: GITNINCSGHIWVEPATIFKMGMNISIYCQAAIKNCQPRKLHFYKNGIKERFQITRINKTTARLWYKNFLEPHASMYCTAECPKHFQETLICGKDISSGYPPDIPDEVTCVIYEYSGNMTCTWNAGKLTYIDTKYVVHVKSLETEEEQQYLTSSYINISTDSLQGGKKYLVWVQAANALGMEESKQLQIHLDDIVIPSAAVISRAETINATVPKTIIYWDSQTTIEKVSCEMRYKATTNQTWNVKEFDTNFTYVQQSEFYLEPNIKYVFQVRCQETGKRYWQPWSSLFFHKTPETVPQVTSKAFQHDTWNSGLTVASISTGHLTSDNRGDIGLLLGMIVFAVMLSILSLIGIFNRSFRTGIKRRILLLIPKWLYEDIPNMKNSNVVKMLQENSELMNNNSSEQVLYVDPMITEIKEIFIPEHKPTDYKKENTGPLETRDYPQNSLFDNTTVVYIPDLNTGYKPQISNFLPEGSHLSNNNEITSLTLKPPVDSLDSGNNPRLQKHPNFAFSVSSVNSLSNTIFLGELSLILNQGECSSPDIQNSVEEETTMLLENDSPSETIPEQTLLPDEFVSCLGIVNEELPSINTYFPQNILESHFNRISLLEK
In words: cell-based or functional assay.

In turn, R[Pen]NT[Trp(7-Me)]K(Ac)[Pen][AEF][2Nal(6-OH)][Thp]EN[3Pal(5-Me)][Sar] (disulfide 2-7 (inferred); ends not checked) [SEQ ID NO: 52] came in with an IL23R Reporter Assay IC50 of less than 10 nM. Take [dDab](Ac)[Abu]NTWQC[AEF][2Nal(6-OH)][Thp]CN[3Pal][Sar] (not fully specified (bridges); ends and bridges not checked) [SEQ ID NO: 413]: the IL23R Reporter Assay IC50 is less than 10 nM and the PBMC pSTAT3 IC50 is less than 0.1 nM. The corresponding values for [Ahp][Pen]NT[Trp(7-Me)]K(Ac)[Pen][AEF][2Nal(6-OH)][Thp]EN[3Pal][Sar] (not fully specified (bridges); ends and bridges not checked) [SEQ ID NO: 417] are less than 10 nM and less than 10 pM. In turn, [Pen]NT[Trp(7-Me)]K(Ac)[Pen][2‑amino‑3‑(4-(2-aminoethoxy)phenyl)propanoic acid][2‑amino‑3‑(6-hydroxynaphthalen-2-yl)propanoic acid][Thp]EN[3Pal][Sar] (not fully specified (bridges); ends and bridges not checked) [SEQ ID NO: 378] came in with an IL23R Reporter Assay IC50 of less than 10 nM and a PBMC pSTAT3 IC50 of less than 10 pM. As to K[Pen]NT[Trp(7-Me)]K[Pen][AEF][2Nal(6-OH)][Thp][Aad]N[3Pal][Sar] (not fully specified (residue 6, bridges); ends and bridges not checked) [SEQ ID NO: 348], the IL23R Reporter Assay IC50 was less than 10 nM.

B1: SEQ ID NO: 424 (peptide)
peptide: R[Pen]NT[Trp(7-Me)]K(Ac)[Pen][AEF][2Nal(6-OH)][Thp]KN[3Pal][Sar]
modifications: not fully specified (residue 11, bridges); ends and bridges not checked; also: K11: lipidated lysine
In the case of B1, the IL23R Reporter Assay IC50 is greater than 100 nM and the PBMC pSTAT3 IC50 was less than 1 nM.

On to R[Pen]NT[Trp(7-Me)]K(Ac)[Pen][2‑amino‑3‑(4-(2-aminoethoxy)phenyl)propanoic acid][2‑amino‑3‑(6-hydroxynaphthalen-2-yl)propanoic acid][Thp]K(Ac)N[X7][Sar] (disulfide 2-7 (inferred); ends not checked) [SEQ ID NO: 49], for which the IL23R Reporter Assay IC50 is less than 10 nM. Turning to R[Pen]ET[Trp(7-Me)]K(Ac)[Pen][AEF][2Nal(6-OH)][Thp]K(Ac)N[3Pal][Sar] (not fully specified (bridges); ends and bridges not checked) [SEQ ID NO: 422], the IL23R Reporter Assay IC50 was less than 10 nM and the PBMC pSTAT3 IC50 is less than 10 pM.

As to [dLys(Me3)][Pen]NT[Trp(7-Me)]K(Ac)[Pen][2‑amino‑3‑(4-(2-aminoethoxy)phenyl)propanoic acid][2‑amino‑3‑(6-hydroxynaphthalen-2-yl)propanoic acid][Thp]EN[3Pal][Sar] (not fully specified (bridges); ends and bridges not checked) [SEQ ID NO: 388], the IL23R Reporter Assay IC50 is less than 10 nM and the PBMC pSTAT3 IC50 is less than 10 pM. Turning to [Pen]ET[Trp(7-Me)][N,N,N‑trimethylhomolysine][Pen][2‑amino‑3‑(4-(2-(methylamino)ethoxy)phenyl)propanoic acid][2‑amino‑3‑(6-hydroxynaphthalen-2-yl)propanoic acid][Thp]EN[3Pal][Sar] (not fully specified (bridges); ends and bridges not checked) [SEQ ID NO: 382], the IL23R Reporter Assay IC50 is less than 10 nM and the PBMC pSTAT3 IC50 is less than 10 pM. The corresponding values for [Pen]ET[Trp(7-Me)]K(Ac)[Pen][2‑amino‑3‑(4-(2-aminoethoxy)phenyl)propanoic acid][2‑amino‑3‑(6-hydroxynaphthalen-2-yl)propanoic acid][Thp]EN[3Pal][Sar] (not fully specified (bridges); ends and bridges not checked) [SEQ ID NO: 372] are less than 10 nM and less than 10 pM.

CNT[Trp(7-Me)]K(Ac)[αMeC][2‑amino‑3‑(4-(2-aminoethoxy)phenyl)propanoic acid][2‑amino‑3‑(6-hydroxynaphthalen-2-yl)propanoic acid][Thp]K(Ac)N[3Pal][Sar] (ends and bridges not checked) [SEQ ID NO: 5] yielded an IL23R Reporter Assay IC50 of less than 10 nM and a PBMC pSTAT3 IC50 of less than 10 pM. [Pen]NT[Trp(7-Me)]K(Ac)[Pen][2‑amino‑3‑(4-(2-aminoethoxy)phenyl)propanoic acid][2‑amino‑3‑(6-hydroxynaphthalen-2-yl)propanoic acid][Thp]EN[3Pal][Sar] (not fully specified (bridges); ends and bridges not checked) [SEQ ID NO: 380] returned an IL23R Reporter Assay IC50 of less than 10 nM. The same measure, in the same setting: under [dK](Me3)[Pen]NT[Trp(7-Me)]K(Ac)[Pen][2‑amino‑3‑(4-(2-aminoethoxy)phenyl)propanoic acid][2‑amino‑3‑(6-hydroxynaphthalen-2-yl)propanoic acid][Thp]EN[X7][Sar] (disulfide 2-7 (inferred); ends not checked) [SEQ ID NO: 50] stands less than 10 nM; under R[Pen]NT[Trp(7-Me)]K(Ac)[Pen][5‑(4-(2-amino-2-carboxyethyl)phenoxy)‑N,N,N‑trimethylpentan‑1‑aminium][2‑amino‑3‑(6-hydroxynaphthalen-2-yl)propanoic acid][Thp]EN[X7][Sar] (disulfide 2-7 (inferred); ends not checked) [SEQ ID NO: 48], less than 10 nM. Still for that read-out and setting: next, [Pen]NT[Trp(7-Me)]K(Ac)[Pen][2‑amino‑3‑(4-(2-aminoethoxy)phenyl)propanoic acid][2‑amino‑3‑(6-hydroxynaphthalen-2-yl)propanoic acid][Thp]EN[3Pal][Sar] (not fully specified (bridges); ends and bridges not checked) [SEQ ID NO: 379]: less than 10 nM.

For the molecule R[Pen]NT[Trp(7-Me)]K(Ac)[Pen][AEF][2Nal(6-OH)][Thp]EN[3Pal(5-Me)][Sar] (disulfide 2-7 (inferred); ends not checked) [SEQ ID NO: 51], the IL23R Reporter Assay IC50 was less than 10 nM. The molecule [(R)‑3‑carboxy‑2‑(4-(((R)-5-carboxy-5-hydrazineylpentyl)amino)-4-oxobutanamido)‑N,N,N‑trimethylpropan‑1‑aminium][Pen]NT[Trp(7-Me)]K(Ac)[Pen][AEF][2Nal(6-OH)][Thp]EN[3Pal][Sar] (not fully specified (bridges); ends and bridges not checked) [SEQ ID NO: 340] displayed an IL23R Reporter Assay IC50 of less than 10 nM and a PBMC pSTAT3 IC50 of less than 10 pM.

Consider [Pen]ET[Trp(7-Me)]K(Ac)[Pen][AEF][2Nal(6-OH)][Thp]EN[3Pal][Sar] (not fully specified (bridges); ends and bridges not checked) [SEQ ID NO: 397], for which the IL23R Reporter Assay IC50 is less than 10 nM and the PBMC pSTAT3 IC50 is less than 10 pM. In the case of [Pen]NT[Trp(7-Me)]K(Ac)[Pen][AEF][2Nal(6-OH)][Thp]EN[3Pal][Sar] (not fully specified (bridges); ends and bridges not checked) [SEQ ID NO: 347], the IL23R Reporter Assay IC50 is less than 10 nM and the PBMC pSTAT3 IC50 was less than 0.1 nM. The corresponding values for R[Pen]NT[Trp(7-Me)]K(Ac)[Pen][2‑amino‑3‑(4-(2-aminoethoxy)phenyl)propanoic acid][2‑amino‑3‑(6-hydroxynaphthalen-2-yl)propanoic acid][Thp]ENA[Sar] (not fully specified (bridges); ends and bridges not checked) [SEQ ID NO: 429] are greater than 100 nM and greater than 1 nM.
